Data as given in patent US20050136043A1, “TGFbeta signaling inhibitors” (Ludwig Institute for Cancer Research, priority 2003, published 2005).

Tests used:
Assay in all cases: In vitro kinase assay (autophosphorylation) of receptor expressed in COS-7 cells
Format in all cases: biochemical
Conditions in all cases: 10 μM peptide, FIG. 5
[1] = target: T1, TβR-I (ALK-5) (Homo sapiens, UniProt P36897)
T1 construct: made in house; host or cells: COS-7 cells (transfected, immunoprecipitated)
T1 sequence (P36897 34-503): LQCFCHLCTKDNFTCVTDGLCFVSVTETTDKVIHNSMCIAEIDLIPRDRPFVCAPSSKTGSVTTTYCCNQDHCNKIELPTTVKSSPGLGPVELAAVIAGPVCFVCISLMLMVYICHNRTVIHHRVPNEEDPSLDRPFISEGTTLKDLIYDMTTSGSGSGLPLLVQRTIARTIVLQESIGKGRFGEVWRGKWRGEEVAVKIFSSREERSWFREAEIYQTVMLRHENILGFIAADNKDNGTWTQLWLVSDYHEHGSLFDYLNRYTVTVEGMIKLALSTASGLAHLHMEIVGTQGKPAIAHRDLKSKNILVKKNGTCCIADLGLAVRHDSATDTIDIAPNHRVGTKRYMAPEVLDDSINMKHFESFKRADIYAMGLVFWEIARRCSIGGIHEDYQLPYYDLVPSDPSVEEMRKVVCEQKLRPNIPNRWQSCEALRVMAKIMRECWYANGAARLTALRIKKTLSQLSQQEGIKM
Experimental: (§1) For in vitro kinase assay of type I and type II TGFβ family receptors, p38α and SAPKα2 kinases, COS-7 cells were transfected with the kinase expression vectors or the control empty pcDNA3 vector using the DEAE-dextran method. Proteins were extracted in a lysis buffer (50 mM Tris-HCl, pH 7.5, 50 mM NaCl, 1% NP-40, 10 μg/mL aprotinin, 0.1 mM PMSF). HA-tagged proteins (ALK1 to ALK7, p38R, SAPKR2) were immunoprecipitated with anti-HA antibody (12CA5; Roche); His6-tagged proteins (type II receptors) were precipitated with Ni-NTA agarose (Qiagen). The precipitates were washed in extraction buffer, with 20 mM imidazole for Ni-NTA agarose-precipitated proteins, and two times with kinase buffer (20 mM HEPES, pH 7.4, 10 mM MgCl2, 2 mM MnCl2, 1 mM DTT). The kinase reaction was initiated by addition of 20 μL of kinase buffer containing 0.5 μCi of [γ-32P]ATP, 5.0 μM ATP, and inhibitory peptides at a final concentration of 10 μM. The reaction was performed at 22° C. for 20 min and terminated by addition of SDS-containing sample buffer and boiling for 5 min. The reaction products were analyzed by SDS-PAGE and exposure in a Fuji X2000 phosphorimager. Equal loading was controlled by immunoblotting aliquots of the samples with a HA probe (Y-11; Santa Cruz) or anti-His antibody (Qiagen).
(§2) To evaluate whether the substrate-mimicking peptides affect kinases of type I and type II reptors of the TGFβ family, we studied the influence of peptides on authophosphorylation of all known mammalian type I receptors [ALK-1, ActR-I (ALK-2), BMPR-IA (ALK-3), ActR-IB (ALK-4), TβR-I (ALK-5), BMPR-IB (ALK-6), and ALK-7], TβRII, ActR-II, BMPR-II, p38R, and SAPKR2 (FIG. 5). The kinases were expressed in COS-7 cells and purified by using specific anti-tag antibodies or Ni-NTA agarose, and kinase activity was tested in the presence of peptides.

[2] = target: T2, ALK-7 (Homo sapiens, UniProt Q8NER5)
T2 construct: made in house; host or cells: COS-7 cells (transfected, immunoprecipitated)
T2 sequence (Q8NER5 21-493): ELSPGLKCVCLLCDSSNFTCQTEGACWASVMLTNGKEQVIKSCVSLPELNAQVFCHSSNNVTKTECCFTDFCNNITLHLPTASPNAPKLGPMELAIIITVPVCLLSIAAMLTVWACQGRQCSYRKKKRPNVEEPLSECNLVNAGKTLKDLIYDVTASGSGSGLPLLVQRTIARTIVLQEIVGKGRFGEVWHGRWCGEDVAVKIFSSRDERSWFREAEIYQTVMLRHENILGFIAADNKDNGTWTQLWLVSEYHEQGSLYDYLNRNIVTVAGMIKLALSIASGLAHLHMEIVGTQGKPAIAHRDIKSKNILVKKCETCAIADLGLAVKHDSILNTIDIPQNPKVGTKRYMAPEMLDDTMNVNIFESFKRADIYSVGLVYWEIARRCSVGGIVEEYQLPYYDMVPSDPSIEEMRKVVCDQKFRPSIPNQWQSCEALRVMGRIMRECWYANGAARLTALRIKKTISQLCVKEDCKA
Experimental: as §1, §2

[3] = target: T3, ALK-1 (Homo sapiens, UniProt P37023)
T3 construct: made in house; host or cells: COS-7 cells (transfected, immunoprecipitated)
T3 sequence (P37023 22-503, species assumed): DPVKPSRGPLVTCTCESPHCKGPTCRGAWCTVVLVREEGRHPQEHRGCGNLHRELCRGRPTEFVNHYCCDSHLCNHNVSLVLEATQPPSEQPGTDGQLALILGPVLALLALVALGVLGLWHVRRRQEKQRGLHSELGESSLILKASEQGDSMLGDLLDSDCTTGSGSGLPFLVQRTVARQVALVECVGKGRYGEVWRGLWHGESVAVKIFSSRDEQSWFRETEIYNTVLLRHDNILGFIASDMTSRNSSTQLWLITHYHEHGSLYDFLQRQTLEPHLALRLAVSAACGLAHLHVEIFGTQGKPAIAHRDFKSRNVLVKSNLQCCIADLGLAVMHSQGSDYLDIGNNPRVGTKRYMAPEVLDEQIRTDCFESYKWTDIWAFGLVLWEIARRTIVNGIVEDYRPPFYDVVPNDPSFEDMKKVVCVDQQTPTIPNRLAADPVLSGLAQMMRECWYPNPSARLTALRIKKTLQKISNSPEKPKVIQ
Experimental: as §1, §2

[4] = target: T4, TβRII (Homo sapiens, UniProt P37173)
T4 construct: made in house; host or cells: COS-7 cells (transfected, Ni-NTA precipitated)
T4 sequence (P37173 23-567, species assumed): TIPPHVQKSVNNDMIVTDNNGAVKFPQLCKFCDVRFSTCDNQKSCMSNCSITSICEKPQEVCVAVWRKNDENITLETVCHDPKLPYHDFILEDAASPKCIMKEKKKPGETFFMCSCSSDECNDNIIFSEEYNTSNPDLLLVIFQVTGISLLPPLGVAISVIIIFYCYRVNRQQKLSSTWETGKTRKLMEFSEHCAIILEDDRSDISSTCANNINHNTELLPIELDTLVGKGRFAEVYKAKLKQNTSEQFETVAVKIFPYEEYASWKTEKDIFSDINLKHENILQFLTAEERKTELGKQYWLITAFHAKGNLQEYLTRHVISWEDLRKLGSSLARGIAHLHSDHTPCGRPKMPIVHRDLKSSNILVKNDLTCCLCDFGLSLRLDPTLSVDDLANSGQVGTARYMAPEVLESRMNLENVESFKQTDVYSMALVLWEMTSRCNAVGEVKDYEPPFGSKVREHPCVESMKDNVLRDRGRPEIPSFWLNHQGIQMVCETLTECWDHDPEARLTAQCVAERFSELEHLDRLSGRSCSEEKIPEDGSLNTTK
Experimental: as §1, §2

[5] = target: T5, ActR-IB (ALK-4) (Homo sapiens, UniProt P36896)
T5 construct: made in house; host or cells: COS-7 cells (transfected, immunoprecipitated)
T5 sequence (P36896 24-505): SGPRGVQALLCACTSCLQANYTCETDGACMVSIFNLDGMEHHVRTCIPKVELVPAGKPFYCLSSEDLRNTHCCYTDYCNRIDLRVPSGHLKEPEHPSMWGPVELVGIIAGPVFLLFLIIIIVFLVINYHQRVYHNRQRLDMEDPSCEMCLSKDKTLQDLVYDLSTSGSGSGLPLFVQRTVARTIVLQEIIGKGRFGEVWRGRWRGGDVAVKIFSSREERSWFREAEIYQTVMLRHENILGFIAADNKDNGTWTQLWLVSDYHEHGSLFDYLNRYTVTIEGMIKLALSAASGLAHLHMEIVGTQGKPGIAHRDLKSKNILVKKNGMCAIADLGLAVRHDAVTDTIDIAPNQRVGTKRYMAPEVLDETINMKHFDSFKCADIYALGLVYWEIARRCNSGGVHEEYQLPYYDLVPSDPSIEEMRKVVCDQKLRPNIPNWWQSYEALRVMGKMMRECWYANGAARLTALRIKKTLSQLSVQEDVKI
Experimental: as §1, §2

| Sequence | Effect on TβR-I kinase [1] | Effect on ALK-7 kinase [2] | Effect on ALK-1 kinase [3] | Effect on TβRII kinase [4] | Effect on ActR-IB (ALK-4) kinase [5] |
| --- | --- | --- | --- | --- | --- |
| RQIKIWFQNRRMKWKKTQMGSPSVRCSSMS (listed as Homo sapiens) [antp-Sm2S, penetratin fused to the C-terminus of wild-type Smad2] | inhibited | without any effect | without any effect | without any effect | without any effect |
| RQIKIWFQNRRMKWKKTQMGSPSVRCSAMA (listed as Homo sapiens) [antp-Sm2A] | inhibited | without any effect | without any effect | without any effect | without any effect |
